Values joined by “and” are separate entries in the source; they are usually repeats but may differ in a detail not shown here. Identical values can stand only once. Like-named read-outs stand apart in the source and are kept apart here. One block for each molecule: values may come before it.
Legend:
[1] = target: Danio rerio calcium hemostasis modulator 1 (drCALHM1), full length, purified channel (Danio rerio) (UniProt E7F2J4); test: cryo-EM structure
[2] = target: Danio rerio calcium hemostasis modulator 1 (drCALHM1), full length, purified channel (Danio rerio) (UniProt E7F2J4); test: cryo-EM structure; remark: listed apart in the source
[3] = target: Danio rerio calcium hemostasis modulator 1 (drCALHM1), full length, purified channel (Danio rerio) (UniProt E7F2J4); test: cryo-EM structure; remark: listed apart in the source
[4] = target: the molecule itself; test: cross-linking
[5] = target: the molecule itself; test: cross-linking; remark: listed apart in the source

stoichiometry N [1]: 8
stoichiometry N [2]: 7 and 8
stoichiometry N [3]: 7
Molecule: Danio rerio calcium hemostasis modulator 1 (drCALHM1), full length, purified channel (from UniProt E7F2J4 1-346) (natural protein)

B1: Homo sapiens CALHM1 with a 2x FLAG tag at the C-terminus, expressed in HEK293T cells (natural protein, H. sapiens, UniProt Q8IU99 1-346, looked up)
chain: MMDKFRMIFQFLQSNQESFMNGICGIMALASAQMYSAFDFNCPCLPGYNAAYSAGILLAPPLVLFLLGLVMNNNVSMLAEEWKRPLGRRAKDPAVLRYMFCSMAQRALIAPVVWVAVTLLDGKCFLCAFCTAVPVSALGNGSLAPGLPAPELARLLARVPCPEIYDGDWLLAREVAVRYLRCISQALGWSFVLLTTLLAFVVRSVRPCFTQAAFLKSKYWSHYIDIERKLFDETCTEHAKAFAKVCIQQFFEAMNHDLELGHTHGTLATAPASAAAPTTPDGAEEEREKLRGITDQGTMNRLLTSWHKCKPPLRLGQEEPPLMGNGWAGGGPRPPRKEVATYFSKV
stoichiometry N [4]: 8
stoichiometry N [5]: 7

Reference: publication doi:10.1101/2021.01.14.426634 (bioRxiv, 2021)
